Experimental data reported in patent publication US20160237160A1 (Bayer, published 2016).

Key:
Experiment in all cases: ELISA, Fc fusion protein coated at 1 µg/ml, TPP-2090 at 75 nM, Amplex Red;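 also: binding reported as ELISA signal intensity in Rfu against a panel of TNF receptor superfamily members presented as Fc fusion proteins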
[1] = target: T1, CD30 (TNFRSF8) Fc fusion protein (Human, UniProt P28908 19-385)
T1 construct: extracellular domain; bought
T1 sequence (looked up): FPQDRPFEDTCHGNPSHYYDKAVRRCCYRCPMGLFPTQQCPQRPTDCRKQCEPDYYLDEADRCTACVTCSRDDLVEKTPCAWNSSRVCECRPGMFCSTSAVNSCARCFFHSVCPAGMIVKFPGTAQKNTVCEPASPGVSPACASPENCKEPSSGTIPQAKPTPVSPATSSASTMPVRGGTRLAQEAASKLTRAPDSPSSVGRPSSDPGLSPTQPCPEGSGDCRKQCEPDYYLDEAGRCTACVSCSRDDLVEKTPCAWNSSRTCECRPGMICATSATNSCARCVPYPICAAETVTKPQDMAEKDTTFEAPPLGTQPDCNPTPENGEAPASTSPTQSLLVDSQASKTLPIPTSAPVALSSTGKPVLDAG
Text: (§1) Shown is the result of an ELISA: Y is “ELISA signal intensity [Rfu]”; X are “TNF receptor superfamily proteins tested (Fc-fusion proteins)”: 1 is “TWEAKR”; 2 is “TWEAKR”; 3 is “Apo-3”; 4 is “Trail-R1”; 5 is “Trail-R2”; 6 is “CD385”; 7 is “CD95”; 8 is “Rank”; 9 is “TNF-R1”; 10 is “TNF-R2”; 11 is “BAFF-R”; 12 is “DcR3”; 13 is “BCMA”; 14 is “TACI”; 15 is “OX40”; 16 is “CD30”; 17 is “CD27”; 18 is “CD40”; 19 is “Osteoprotegerin”; 20 is “EDAR”; 21 is “GITR”; 22 is “HVEM”; 23 is “NGF R”; 24 is “Trail R3”; 25 is “Lymphotioxin B R”; 26 is “Trail R4”; 27 is “EDA2R”; 28 is “TROY”; 29 is “RELT”; 30 is “4-1BB”.
(§2) To collect dose-response data a serial 3fold dilution of biotinylated IgG starting with a concentration of 2 μM was used as soluble binding partner. Detection was done with anti-hIgG1-HRP and Amplex Red.

[2] = target: T2, OX40 (TNFRSF4) Fc fusion protein (Human, UniProt P43489 29-214)
T2 construct: extracellular domain; bought
T2 sequence (looked up): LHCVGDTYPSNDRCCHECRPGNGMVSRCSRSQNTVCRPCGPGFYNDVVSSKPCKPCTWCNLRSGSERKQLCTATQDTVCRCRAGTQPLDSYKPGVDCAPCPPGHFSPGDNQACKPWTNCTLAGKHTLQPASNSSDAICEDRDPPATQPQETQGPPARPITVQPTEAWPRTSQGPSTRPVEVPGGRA
Text: as §1, §2

[3] = target: T3, CD40 (TNFRSF5) Fc fusion protein (Human, UniProt P25942 21-193)
T3 construct: extracellular domain; bought
T3 sequence (P25942 21-193): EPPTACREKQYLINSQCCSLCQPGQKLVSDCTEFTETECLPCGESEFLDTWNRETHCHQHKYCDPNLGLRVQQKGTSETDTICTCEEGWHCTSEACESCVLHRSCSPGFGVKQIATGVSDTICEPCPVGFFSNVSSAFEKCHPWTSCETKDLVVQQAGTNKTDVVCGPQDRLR
Text: as §1, §2

[4] = target: T4, CD-385 (TNFRSF21) Fc fusion protein (Human, UniProt O75509 42-349)
T4 construct: extracellular domain; bought
T4 sequence (looked up): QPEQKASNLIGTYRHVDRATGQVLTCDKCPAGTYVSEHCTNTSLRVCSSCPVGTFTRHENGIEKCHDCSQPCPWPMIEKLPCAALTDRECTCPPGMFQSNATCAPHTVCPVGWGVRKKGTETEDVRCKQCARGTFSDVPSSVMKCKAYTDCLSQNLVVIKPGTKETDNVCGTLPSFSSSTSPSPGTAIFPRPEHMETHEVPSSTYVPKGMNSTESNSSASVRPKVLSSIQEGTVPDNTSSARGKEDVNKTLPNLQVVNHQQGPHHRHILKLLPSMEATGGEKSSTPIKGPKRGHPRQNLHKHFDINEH
Text: as §1, §2

[5] = target: T5, NGF R (TNFRSF16) Fc fusion protein (Human, UniProt P08138 29-250)
T5 construct: extracellular domain; bought
T5 sequence (looked up): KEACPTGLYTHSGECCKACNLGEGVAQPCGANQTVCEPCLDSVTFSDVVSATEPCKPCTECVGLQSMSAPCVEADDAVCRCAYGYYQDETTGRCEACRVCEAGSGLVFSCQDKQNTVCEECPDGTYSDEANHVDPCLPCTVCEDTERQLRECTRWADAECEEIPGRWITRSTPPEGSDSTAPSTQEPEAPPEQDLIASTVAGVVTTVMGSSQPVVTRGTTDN
Text: as §1, §2

[6] = target: T6, CD95 (TNFRSF6) Fc fusion protein (Human, UniProt P25445 26-173)
T6 construct: extracellular domain; bought
T6 sequence (looked up): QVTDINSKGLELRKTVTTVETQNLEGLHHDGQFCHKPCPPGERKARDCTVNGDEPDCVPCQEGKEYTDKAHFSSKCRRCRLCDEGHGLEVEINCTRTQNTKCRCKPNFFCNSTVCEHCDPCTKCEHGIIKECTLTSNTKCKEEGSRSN
Text: as §1, §2

[7] = target: T7, TNF-R2 (TNFRSF1B) Fc fusion protein (Human, UniProt P20333 23-257)
T7 construct: extracellular domain; bought
T7 sequence (looked up): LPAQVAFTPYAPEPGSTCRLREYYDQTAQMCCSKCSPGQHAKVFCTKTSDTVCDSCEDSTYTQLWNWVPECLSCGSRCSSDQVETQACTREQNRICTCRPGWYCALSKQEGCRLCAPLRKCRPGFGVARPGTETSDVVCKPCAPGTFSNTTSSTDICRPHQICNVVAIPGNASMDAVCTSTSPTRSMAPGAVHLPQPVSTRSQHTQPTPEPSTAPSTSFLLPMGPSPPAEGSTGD
Text: as §1, §2

[8] = target: T8, HVEM (TNFRSF14) Fc fusion protein (Human, UniProt Q92956 39-202)
T8 construct: extracellular domain; bought
T8 sequence (looked up): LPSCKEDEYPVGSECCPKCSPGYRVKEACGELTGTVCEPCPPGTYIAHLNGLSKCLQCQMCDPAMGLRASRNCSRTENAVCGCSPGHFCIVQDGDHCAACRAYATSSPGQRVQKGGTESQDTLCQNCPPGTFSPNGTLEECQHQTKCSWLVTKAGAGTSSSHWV
Text: as §1, §2

[9] = target: T9, Osteoprotegerin (TNFRSF11B) Fc fusion protein (Human, UniProt O00300 22-194, limits assumed)
T9 construct: extracellular domain; bought
T9 sequence (looked up): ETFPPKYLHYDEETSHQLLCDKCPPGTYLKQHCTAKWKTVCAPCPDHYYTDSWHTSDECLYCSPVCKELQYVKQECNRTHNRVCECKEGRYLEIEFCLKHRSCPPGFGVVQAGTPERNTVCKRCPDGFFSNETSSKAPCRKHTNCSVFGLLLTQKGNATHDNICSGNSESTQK
Text: as §1, §2

[10] = target: T10, Trail-R2 (TNFRSF10B) Fc fusion protein (Human, UniProt O14763 56-210)
T10 construct: extracellular domain; bought
Text: as §1, §2

Measured: binding result

B1: TPP-2090 (antibody, human IgG1, kappa, V domains shown)
VH: EVQLLESGGGLVQPGGSLRLSCAASGFTFSPYPMIWVRQAPGKGLEWVSYISPSGGSTHYADSVKGRFTISRDNSKNTLYLQMNSLRAEDTAVYYCARGGDTYFDYFDYWGQGTLVTVSS
VL: DIQMTQSPSSLSASVGDRVTITCRASQSISGYLNWYQQKPGKAPKLLIYQASSLQSGVPSRFSGSGSGTDFTLTISSLQPEDFATYYCQQSYTSPFITFGQGTKVEIKR
notes: Human IgG1
no binding (tested: 75 nM): all assays above
